Two substances from PMC4360655 can be followed below.

One data set relates to P15381. The data set is described as follows: FRET or BRET; living tsA-201 cells expressing CaV1.2-EGFP (donor) and CaV1.2-tagRFP (acceptor), confocal; FRETr = RFPg/GFPg; followed during flash photolysis of caged Ca2+ at −80 mV, during a 500-ms depolarization from −80 to +10 mV (10 mM EGTA in the pipette), and at 0-5000 nM Ca2+ with 1 μM ….
The target of data set [1] is CaV1.2 channel pore-forming subunit (α1c) tagged at its C-terminus with a half of split Venus (CaV1.2-VN155(I152L) and CaV1.2-VC155) (rabbit) (UniProt P15381).

Consider “CaV1.2 channel pore-forming subunit (α1c) tagged at its C-terminus with EGFP or tagRFP (CaV1.2-EGFP and CaV1.2-tagRFP)”, for which, in the data set with P15381, the “time for FRETr to decay to 50% of the peak (T50%), with m5” value was found to be 0.63 ± 0.23 s for FRETr. As for “CaV1.2 channel pore-forming subunit (α1c) tagged at its C-terminus with a half of split Venus (CaV1.2-VN155(I152L) and CaV1.2-VC155) (from UniProt P15381 1-2171) (natural protein)”, the CaV1.2 sparklet density after against before the depolarization that fuses CaV1.2-VN and CaV1.2-VC in data set [1] is 10 fold.
